Source: patent US12692310B2, “ASIC1 channel antagonist antibody” (ShanghaiTech University, priority 2019, dated 2026)

Assays:
ΔhASIC1a = molecular target: T1, ΔhASIC1a (Homo sapiens, UniProt P78348); test: Biacore SPR binding affinity, single cycle kinetic model; conditions: Biacore T200, purified ΔhASIC1a protein, read-out: apparent KD / binding affinity to ΔhASIC1a
T1 construct: A truncated ASIC1a (amino acids 13-464; ΔhASIC1a) was overexpressed and purified; made in house; host or cells: HEK293F (BacMam baculovirus)
T1 sequence (P78348 13-464): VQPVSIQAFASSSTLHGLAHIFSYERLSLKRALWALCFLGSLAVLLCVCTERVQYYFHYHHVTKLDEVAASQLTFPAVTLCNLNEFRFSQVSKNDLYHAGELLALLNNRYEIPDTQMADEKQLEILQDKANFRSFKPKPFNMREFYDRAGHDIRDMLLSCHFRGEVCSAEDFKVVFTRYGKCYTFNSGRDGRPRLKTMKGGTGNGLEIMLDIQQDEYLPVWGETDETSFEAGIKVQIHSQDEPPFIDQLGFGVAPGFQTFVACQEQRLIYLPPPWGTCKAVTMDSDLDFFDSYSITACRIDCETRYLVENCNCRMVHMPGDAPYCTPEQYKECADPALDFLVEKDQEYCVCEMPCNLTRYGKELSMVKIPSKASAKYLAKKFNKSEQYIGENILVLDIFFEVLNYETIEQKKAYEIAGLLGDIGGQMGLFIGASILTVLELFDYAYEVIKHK
Description: Surface plasmon resonance (SPR) and flow cytometry were used to study the interaction between the monoclonal antibody and hASIC1a. SPR-binding studies were performed on a Biacore T200 (GE Healthcare). The anti-Flag antibody was amine coupled to the surface of a biosensor chip CM5 series S (GE Healthcare). The recombinant Flag-tagged ΔhASIC1a was then immobilized onto the chip surface. […] The kinetics of binding/dissociation was measured as a change in the SPR signal resonance units. Apparent binding affinities were calculated using the Biacore T200 evaluation software with a single-cycle kinetic model.

mASIC1a-eYFP = molecular target: T2, mASIC1a-eYFP (Mus musculus, UniProt Q6NXK8); test: Species/subtype selectivity, FACS binding and ICC, transfected CHO-K1 cells; format: cell-based
T2 construct: expressed in transfected cells; host or cells: CHO-K1, transient
T2 sequence (Q6NXK8 1-526): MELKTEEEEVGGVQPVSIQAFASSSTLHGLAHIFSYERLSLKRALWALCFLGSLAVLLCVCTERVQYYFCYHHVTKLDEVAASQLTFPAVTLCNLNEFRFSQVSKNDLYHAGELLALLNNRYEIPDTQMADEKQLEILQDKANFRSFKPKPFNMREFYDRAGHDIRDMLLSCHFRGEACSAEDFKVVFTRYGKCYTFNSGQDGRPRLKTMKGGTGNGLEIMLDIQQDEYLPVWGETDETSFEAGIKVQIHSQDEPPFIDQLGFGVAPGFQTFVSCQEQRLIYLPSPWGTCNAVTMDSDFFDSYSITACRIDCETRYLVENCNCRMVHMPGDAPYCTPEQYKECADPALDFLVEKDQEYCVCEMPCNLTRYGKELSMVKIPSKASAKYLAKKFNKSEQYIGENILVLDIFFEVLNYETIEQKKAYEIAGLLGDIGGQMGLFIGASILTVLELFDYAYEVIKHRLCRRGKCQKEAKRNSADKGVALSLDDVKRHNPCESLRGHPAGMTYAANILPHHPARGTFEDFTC
Description: Cell Membrane Colocalization Studies Using Immunocytochemistry (ICC). Cells (CHO-K1) were seeded onto the poly-D-lysine-coated glass bottom 24-well plates at a concentration of 2×10^5 cells per mL. After 12 h of cultivation, the CHO-K1 cells were transfected with ASIC plasmids by Lipofectin 3000 reagent. Twenty-four hours after transfection, the cells were fixed in 4% paraformaldehyde and incubated for 30 min in a blocking solution (5% goat serum in PBS). The resulting cells were incubated with […] ASC06-IgG1 at 4° C. overnight followed by three PBS washes for 5 min each and incubation with the Alexa555-conjugated goat anti-human secondary antibody (Life Technology). After three additional PBS washes for 5 min each, the nuclei of the cells were stained with DAPI (#10236276001; Roche). The ICC analysis was performed on a laser scanning confocal microscopy (ZEISS LSM710) with a 63×N.A. 1.4 objective at 25° C. Images were collected on a 1,024×1,024-pixel EM-CCD camera. Data acquisition and analyses were performed with the ZEN 2012 professional software.
To test the species and subtype selectivity of ASC06-IgG1, vectors encoding human ASIC1b-eYFP fusion, rat ASIC1a-eYFP fusion, mouse ASIC1a-eYFP fusion, hASIC2a-eYFP fusion, hASIC2b-eYFP fusion, and hASIC3a-eYFP fusion were constructed. The CHO-K1 cells were transiently transfected with these plasmids. FACS binding assay and immunocytochemistry (ICC) were carried out to determine if ASC06-IgG1 is able to bind to the cell surface-expressed ASIC homologs and isotypes.

B1: ASC06-IgG1: ASC06 antibody converted into a full length IgG1 form (antibody, V domains shown)
VH: QVQLQQSGGGLVQPGGSLRLSCAASGFTFSSYAMSWVRQAPGKGLEWVSAISGSGGSTYYADSVKGRFTISRDNSKNTLYLQMNSLRAEDTAVYYCAKDSFYGYSKGDWGQGTLVTVSS
VL: QSALTQPASVSGSPGQSITISCTGTSSDVGAYNYVSWYQQQPGKAPKLMIYGVSNRPSGVSNRFSGSKSGNAASLTISGLQAEDEADYYCSSYTSSSTYVFGTGTKLTVLG
- Kd (ΔhASIC1a): 7.9 nM
- FACS recognition of mouse ASIC1a (mASIC1a-eYFP; FACS): recognized
- ICC membrane co-localization with mASIC1a-eYFP (mASIC1a-eYFP; ICC staining): membrane co-localization
